Results published in doi:10.1101/2021.03.19.436211 (bioRxiv, 2021).

Key:
[1] = molecular target: the molecule itself; experiment: SEC
[2] = molecular target: the molecule itself; experiment: SEC-MALS
[3] = molecular target: the molecule itself; experiment: crystal structure

B1: full-length mouse lipin 1α (purified from Sf9 cells) (enzyme, UniProt Q91ZP3-2 1-891, looked up)
chain: MNYVGQLAGQVFVTVKELYKGLNPATLSGCIDIIVIRQPNGSLQCSPFHVRFGKMGVLRSREKVVDIEINGESVDLHMKLGDNGEAFFVQETDNDQEIIPMYLATSPILSEGAARMESQLKRNSVDRIRCLDPTTAAQGLPPSDTPSTGSLGKKRRKRRRKAQLDNLKRDDNVNSSEDEDMFPIEMSSDEDTAPMDGSRTLPNDVPPFQDDIPKENFPSISTHPQSASYPSSDREWSPSPSPSGSRPSTPKSDSELVSKSADRLTPKNNLEMLWLWGELPQAAKSSSPHKMKESSPLGSRKTPDKMNFQAIHSESSDTFSDQSPTMARGLLIHQSKAQTEMQFVNEEDLESLGAAAPPSPVAEELKAPYPNTAQSSSKTDSPSRKKDKRSRHLGADGVYLDDLTDMDPEVAALYFPKNGDPGGLPKQASDNGARSANQSPQSVGGSGIDSGVESTSDSLRDLPSIAISLCGGLSDHREITKDAFLEQAVSYQQFADNPAIIDDPNLVVKVGNKYYNWTTAAPLLLAMQAFQKPLPKATVESIMRDKMPKKGGRWWFSWRGRNATIKEESKPEQCLTGKGHNTGEQPAQLGLATRIKHESSSSDEEHAAAKPSGSSHLSLLSNVSYKKTLRLTSEQLKSLKLKNGPNDVVFSVTTQYQGTCRCEGTIYLWNWDDKVIISDIDGTITRSDTLGHILPTLGKDWTHQGIAKLYHKVSQNGYKFLYCSARAIGMADMTRGYLHWVNERGTVLPQGPLLLSPSSLFSALHREVIEKKPEKFKVQCLTDIKNLFFPNTEPFYAAFGNRPADVYSYKQVGVSLNRIFTVNPKGELVQEHAKTNISSYVRLCEVVDHVFPLLKRSHSCDFPCSDTFSNFTFWREPLPPFENQDMHSASA
Q: Does B1 bind [1]?
A: Result: binds

B2: mouse lipin 1 M-Lip^xtal domain (as used for SEC-MALS) (domain or fragment, UniProt Q91ZP3-2 458-548, looked up)
chain: SLRDLPSIAISLCGGLSDHREITKDAFLEQAVSYQQFADNPAIIDDPNLVVKVGNKYYNWTTAAPLLLAMQAFQKPLPKATVESIMRDKMP
Q: B2 was tested. Which “stoichiometry N” value [2] did it give?
A: The value was 2.

B3: mouse lipin 2 M-Lip^xtal domain (domain or fragment, UniProt Q99PI5 459-549, looked up)
chain: SAMDLPDVTLSLCGGLSENGEISKEKFMEHIITYHEFAENPGLIDNPNLVIRIYNRYYNWALAAPMILSLQVFQKSLPKATVESWVKDKMP
Q: Does B3 bind [3]?
A: Result: binds
